Source: the supplement of paper PMC10201428
± gives the standard deviation of the averaged measurements.

System: VchCAST RNA-guided transposition machinery (E. coli BL21(DE3) host, lacZ target)
Test: relative integration efficiency (T-RL orientation) vs wild-type transposon end (log2 (normalized fold change)); transposon end mutated: right end (5 bp flank + 75 bp right end); higher = more efficient transposition
Outline: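 A T7-driven effector plasmid encoding a CRISPR array, tniQ-cas8-cas7-cas6 and tnsA-tnsB-tnsC was co-transformed into E. coli BL21(DE3) together with a pUC57 mini-transposon donor holding barcoded pools of 1549 left-end or 1849 right-end variants. Transformants were plated with 0.1 mM IPTG at 37°C for 18 h. Illumina sequencing of PCR-amplified input plasmids and genomic integration junctions gave barcode abundances, and relative integration efficiency is their output/input fold change, normalised to reference barcodes and log-transformed.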

Which “relative integration efficiency (log2)” value does the source give for “ACATTTGTTGATACAACCATAAAATGATAAAATGACCCATAAATTGATAATTATCACACCCATAAATTGATATTGCCTCTGATCATAGTCAGACCAACATTGCTACGACCCGTATTCGCACCGACAC” here?
The value was -0.49 ± 0.13.

Which “relative integration efficiency (log2)” value does the source give for “ACATTTGTTGATACCACCATCAAATGATAATTACACCCCTACATTGATAATTATCACACCCAATTTAACTATAACGCTCTGATCATAGTCAGACCAACATTGCTACGACCCGTATTCGCACCGACAC” here?
Its value is -5.58 ± 0.31.

With “ACATTTGTTGATACATGGTTAAAATGATAATTACACCCATAAATTGATAATTATCACACCCATAAATTGATATTGCCTCTGATCATAGTCAGACCAACATTGCTACGACCCGTATTCGCACCGACAC” as the sequence, how does the “relative integration efficiency (log2)” value read?
The value was -1.62 ± 0.088.

With “ACATTTGTTGATACAACCATAAAATGATAATTACACCCATAAATTCATCATTATCACCCCCAATTTAACTATAACGCTCTGATCATAGTCAGACCAACATTGCTACGACCCGTATTCGCACCGACAC” as the sequence, how does the “relative integration efficiency (log2)” value read?
The value was -1.8 ± 0.25.

For “ACATTTGTTGATACAACCATACCCGGATAATTACACCCATAAATTGATAATTATCACACCCATAAATTGATATTGCCTCTGATCATAGTCAGACCAACATTGCTACGACCCGTATTCGCACCGACAC”, which “relative integration efficiency (log2)” value is on record?
Its value is -3.77 ± 0.26.

“ACATTTGTTGATACAACCATAAAATCATAATTACCCCCATCAATTGATAATTATCCCACCCAATTTAACTATAACGCTCTGATCATAGTCAGACCAACATTGCTACGACCCGTATTCGCACCGACAC” was tested. Which “relative integration efficiency (log2)” value did it give?
The value was -5.51 ± 0.13.

“ACATTTGTTGATACAACCATAAAATGATAATTACACCCATAACGGTCGCCGGCGACACAAACGCCCGGTCGCGGTAAGAGGATCATAGTCAGACCAACATTGCTACGACCCGTATTCGCACCGACAC” was tested. Which “relative integration efficiency (log2)” value did it give?
Its value is -2.35 ± 0.24.

“ACATTTGTTGATACAACCATAAAATGATAATTACACCCATAAATTGATAATTATCACACCCATAAATTGATATTGAAGAGGATCATAGTCAGACCAACATTGCTACGACCCGTATTCGCACCGACAC” was tested. Which “relative integration efficiency (log2)” value did it give?
Its value is -0.00509 ± 0.15.

With “TGATTTGTTGATACAACCATAAAATGATAATTACACCCATAAATTGATAATTATCACACCCATAAATTGATATTGCCTCTGATCATAGTCAGACCAACATTGCTACGACCCGTATTCGCACCGACAC” as the sequence, how does the “relative integration efficiency (log2)” value read?
The value was 0.00782 ± 0.012.

“ACATTTGTGGATACAACCATAAAATGATAATTACACCCATAAATGGATAATTATCACACCCAATTTAACTATAACGCTCTGATCATAGTCAGACCAACATTGCTACGACCCGTATTCGCACCGACAC” was tested. Which “relative integration efficiency (log2)” value did it give?
The value was -0.586 ± 0.33.

How did the “relative integration efficiency (log2)” value turn out when “ACATTTGTTGATACAACCATAAAATGATAATTACACCCATAAATTGATAATTATCACACCACTAAATTGATATTGCCTCTGATCATAGTCAGACCAACATTGCTACGACCCGTATTCGCACCGACAC” was run?
The value was -0.503 ± 0.044.

Which “relative integration efficiency (log2)” value does the source give for “ACATTTGTCAACCATAAAATGATAATTACACCCATAAATTGATAATTATCACACCCATAAATTGATATTGCCTCTGATCATAGTCAGACCAACATTGCTACGACCCGTATTCGCACCGACACTGACT” here?
The value was -6.76 ± 0.31.

Which “relative integration efficiency (log2)” value does the source give for “ACATTTGTAAAAAAAACCATACGTTGATTTTACGAAACCATACGCTGAAATAATCACAACCATACATTGAAATTGCCTCTGATCATAGTCAGACCAACATTGCTACGACCCGTATTCGCACCGACAC” here?
Its value is -6.97 ± 0.31.

With “ACATTTGTTCATACAACCATAAAATGATAATTACACCCATAAATTGATCATTATCACACCCAATTTAACTATAACGCTCTGATCATAGTCAGACCAACATTGCTACGACCCGTATTCGCACCGACAC” as the sequence, how does the “relative integration efficiency (log2)” value read?
The value was -1.45 ± 0.36.

How did the “relative integration efficiency (log2)” value turn out when “ACATTTGTTGATACAACCATTAAATGATAATTACACCCATTAATTGATAATTATCACACCCATTAATTGATATTGCCTCTGATCATAGTCAGACCAACATTGCTACGACCCGTATTCGCACCGACAC” was run?
Its value is -0.515 ± 0.021.

“ACATTTGTTGATACAACCATAAAAAGATAATTACACCCATAAATTGATAATTGTGACACCGAATTTAACTATAACGCTCTGATCATAGTCAGACCAACATTGCTACGACCCGTATTCGCACCGACAC” was tested. Which “relative integration efficiency (log2)” value did it give?
Its value is -1.15 ± 0.29.

With “ACATTTGTTGATACAACCATAAAATGATAATTACACCCATAAATTGATAATTATCTGTGCCATAAATTGATATTGCCTCTGATCATAGTCAGACCAACATTGCTACGACCCGTATTCGCACCGACAC” as the sequence, how does the “relative integration efficiency (log2)” value read?
The value was -0.555 ± 0.23.

For “ACATTTGTTGATACAACAATAAAATGATAATTACACCAATAAATTGATAATTATCACACCAATAAATTGATATTGCCTCTGATCATAGTCAGACCAACATTGCTACGACCCGTATTCGCACCGACAC”, which “relative integration efficiency (log2)” value is on record?
The value was -0.726 ± 0.084.

Which “relative integration efficiency (log2)” value does the source give for “ACATTTGTGGATACAACCATAAAATGATAATTACACCCATAAATGGATCATTATCACACCCAATTTAACTATAACGCTCTGATCATAGTCAGACCAACATTGCTACGACCCGTATTCGCACCGACAC” here?
The value was -1.53 ± 0.23.

Which “relative integration efficiency (log2)” value does the source give for “ACATTTGTTGATACAACCATAAAATGATTTAATCACCCATAAATTGATTTAATTCACACCCATAAATTGATTAACGCTCTGATCATAGTCAGACCAACATTGCTACGACCCGTATTCGCACCGACAC” here?
The value was -1.13 ± 0.18.

How did the “relative integration efficiency (log2)” value turn out when “ACATTTGTTGATACAACCATAAAATGATAATTACACCCATAAATTGATAATTATCAGTGGGTATTTAACTATAACGCTCTGATCATAGTCAGACCAACATTGCTACGACCCGTATTCGCACCGACAC” was run?
The value was -0.681 ± 0.17.

With “ACATTTGTTGATACAACCATAAAATGATAATTACTCTGATCATCACCCATAAATTGATAATTATCACACCCATAAATTGATATTGCAGTCAGACCAACATTGCTACGACCCGTATTCGCACCGACAC” as the sequence, how does the “relative integration efficiency (log2)” value read?
The value was -4.28 ± 0.15.

With “ACATTTGTTCATACAACCCTAAAATGATAATTACACCCATAAATTGATCATTATCACACCCAATTTAACTATAACGCTCTGATCATAGTCAGACCAACATTGCTACGACCCGTATTCGCACCGACAC” as the sequence, how does the “relative integration efficiency (log2)” value read?
The value was -3.41 ± 0.23.

For “ACATTTGTTGATACAACCATAAAATGATAATTAGTGGGTATTTAACTATTAATTCACACCCATAAATTGATATTGCCTCTGATCATAGTCAGACCAACATTGCTACGACCCGTATTCGCACCGACAC”, which “relative integration efficiency (log2)” value is on record?
Its value is -3.76 ± 0.071.

For “ACATTTGTTGATACAACCATAAAATGATAAAAACACCCATAAATTGATAATTATCACACCCATAAATTGATATTGCCTCTGATCATAGTCAGACCAACATTGCTACGACCCGTATTCGCACCGACAC”, which “relative integration efficiency (log2)” value is on record?
Its value is -0.347 ± 0.089.

With “ACATTTGTTCATACAACCATAAAATGATAATTACACCCATAAATGGATCATTATCACACCCAATTTAACTATAACGCTCTGATCATAGTCAGACCAACATTGCTACGACCCGTATTCGCACCGACAC” as the sequence, how does the “relative integration efficiency (log2)” value read?
The value was -1.79 ± 0.18.

How did the “relative integration efficiency (log2)” value turn out when “ACATTTGTTGATACACCCATAAATTGATAATTACACCCATAAATTGATATTGCTCACAACCATATATTGATATCTCCTCTGATCATAGTCAGACCAACATTGCTACGACCCGTATTCGCACCGACAC” was run?
The value was -1.02 ± 0.26.

How did the “relative integration efficiency (log2)” value turn out when “ACATTTGTTGCGACAACCATAAAATGATAATTACACCCATAAATTGATAATTATCACACCCATAAATTGATATTGCCTCTGATCATAGTCAGACCAACATTGCTACGACCCGTATTCGCACCGACAC” was run?
Its value is -0.447 ± 0.038.

“ACATTTGTTGATACCACCATAAAATGGTAATTACACCCATACATTGATAATTATCACACCCAATTTAACTATAACGCTCTGATCATAGTCAGACCAACATTGCTACGACCCGTATTCGCACCGACAC” was tested. Which “relative integration efficiency (log2)” value did it give?
The value was -2.87 ± 0.24.

“ACATTTGTTGATACAACCATAAAATGATAATTACAACCATAAAGTGATATTTATCAGTGGGTATTTAACTATAACGCTCTGATCATAGTCAGACCAACATTGCTACGACCCGTATTCGCACCGACAC” was tested. Which “relative integration efficiency (log2)” value did it give?
Its value is -0.586 ± 0.2.

How did the “relative integration efficiency (log2)” value turn out when “ACATTTGTTGATACAACCATAAAATCATAATTACCCCCATCAATTGATAATTATCACACCCCATTTAACTATAACGCTCTGATCATAGTCAGACCAACATTGCTACGACCCGTATTCGCACCGACAC” was run?
The value was -5.34 ± 0.18.

How did the “relative integration efficiency (log2)” value turn out when “ACATTTGTTGATACAACCATAAAGTGATATTTACAACCATAAGTTGATATTTTTCACAACCATATATTGATATCTCCTCTGATCATAGTCAGACCAACATTGCTACGACCCGTATTCGCACCGACAC” was run?
Its value is 0.0944 ± 0.13.
